This note sets out measurements from paper doi:10.1101/2022.05.09.491158.

This experiment has as its target purified recombinant I-A^b carrying a cleavable linker peptide (mouse). Nature of the experiment: fluorescent peptide competition binding assay.

As to “NP peptide Q2, P2 (Ser to Gln) (from UniProt P03466 311-325)”, the reduction in peptide-MHC binding (against the unsubstituted peptide) worked out at 3.4.
